The results in this text go back to patent publication US20170145069A1 (Novo Nordisk, published 2017).

*1 amine or outer side, *2 acyl side, *3 side chain or, on linkers, in order; H or OH if unused. Where no end group is shown, it is not given here. Side-chain parts run from the residue outwards. [ ]: non-standard residue; d: D form. The star is where a group is joined. Undecanoyl(11-OPh(4-COOH)) = O=C(O)c1ccc(OCCCCCCCCCCC(=O)*)cc1; Decanoyl(10-(4-HOOC-PhO)) = O=C(O)c1ccc(OCCCCCCCCCC(=O)*)cc1; γGlu = O=C(O)[C@H](CCC(=O)[*:2])N[*:1]; εLys = N[C@@H](CCCCN[*:1])C(=O)[*:2]; 13‑carboxytridecanoyl = C14 diacid; AEEA = NCCOCCOCC(=O)O; Aib = CC(C)(N)C(=O)O

The target in test [1] is T1, human GLP-1 receptor (human, UniProt P43220 24-463). Briefly: cell-based or functional assay.
In test [2] the target is T1, human GLP-1 receptor. Briefly: SPA, displacement of 125I-GLP-1(7-36)NH2, BHK membranes, 0.001% HSA. How it is done:
Test compounds, membranes, SPA-particles and [¹²⁵I] ]-GLP-1(7-36)NH₂ were diluted in assay buffer. 50 ul (micro liter) buffer (“low albumin” experiment containing 0.001% HSA) was added to Optiplate, and 25 ul of test compounds were added. 5-10 μg membrane protein/sample was added (50 μl) corresponding to 0.1-0.2 mg protein/ml (to be preferably optimised for each membrane preparation). SPA-particles (Wheatgerm agglutinin SPA beads, Perkin Elmer, #RPNQ0001) were added in an amount of 0.5 mg/well (50 μl). The incubation was started with [¹²⁵I]-GLP-1]-(7-36)NH₂ (final concentration 0.06 nM corresponding to 49.880 DPM, 25 μl). The plates were sealed with PlateSealer and incubated for 120 minutes at 30° C. while shaking. The plates were centrifuged (1500 rpm, 10 min) and counted in Topcounter.
The IC₅₀ value was read from the curve as the concentration which displaces 50% of ¹²⁵I-GLP-1 from the receptor.
(In a radioligand displacement assay an active substance lowers the binding of a labelled ligand.)

The target in test [3] is T1, human GLP-1 receptor. The experiment in a line: cell-based or functional assay. This is another data set of the same source.

B1: GLP-1 derivative of Example 11 (Chem. 30), N^eps26- and C-terminal-Lys-N^eps-diacylated [Aib^8,His^31,Gln^34]-GLP-1-(7-37)-peptidyl-Lys (peptide)
peptide: HXEGTFTSDVSSYLEGQAAKEFIAHLVQGRGK
modifications: Aib at 8; eps-amino of Lys26 and of the added C-terminal Lys (position 38) each acylated with 10-(4-carboxyphenoxy)decanoyl-gGlu-Ser-Ser-Gly-Ser-Ser-Gly
A word on the IC50: it is the concentration that gives 50% inhibition. A high value points to weaker potency. In the case of B1, in test [1], the “In vitro potency (AlphaScreen cAMP; membranes) EC50” value was determined as 0.381 nM. Also, the 50% inhibitory concentration (IC50) in test [2] turned out to be 12.8 nM.

H[Aib]EGTFTSDVSK([AEEA-AEEA-γGlu-Decanoyl(10-(4-HOOC-PhO))])YLEGQAAK([AEEA-AEEA-γGlu-Decanoyl(10-(4-HOOC-PhO))])EFIAWLVQGRG [Comparative compound of Example 9a: Compound of Example 92, Chem. 111, in WO 2012/062803]: the “In vitro potency (AlphaScreen cAMP; membranes) EC50” value in test [1] came to 1.59 nM. The same molecule displayed an IC50 in test [2] of 8.09 nM.

As to H[Aib]EGTFTSDVSK([εLys-Gly-Ser-Ser-Gly-Ser-Ser-γGlu-Undecanoyl(11-OPh(4-COOH))])YLEGQAAK([εLys-Gly-Ser-Ser-Gly-Ser-Ser-γGlu-Undecanoyl(11-OPh(4-COOH))])EFIAWLVQGRG, the “In vitro potency (AlphaScreen cAMP; membranes) EC50” value in test [1] stood at 0.089 nM. Further, in test [2], the IC50 amounted to 0.48 nM.

In the case of H[Aib]EGTFTSDVSK([AEEA-AEEA-γGlu-13‑carboxytridecanoyl])YLEEQAVREFIAK([AEEA-AEEA-γGlu-13‑carboxytridecanoyl])LVRGRG [Comparative compound of Example 6a: Compound of Example 74, Chem. 93, in WO 2012/062803], the “In vitro potency (CRE-luciferase) low albumin EC50” value in test [3] was 0.062 nM. The “In vitro potency (AlphaScreen cAMP; membranes) EC50” value in test [1] came to 0.062 nM. Further, in test [2], the IC50 worked out at 0.8 nM.

B2: Comparative compound of Example 1a: Compound of Example 2, Chem. 21, in WO 2011/080103 (peptide)
peptide: HXEGTFTSDVSSYLEGQAAKEFIAWLVRGRK
modifications: not fully specified; Aib at 8; eps-amino of Lys26 and Lys37 each acylated with 10-(4-carboxyphenoxy)decanoyl via the gGlu-2xOEG linker (as Example 1, only the linker differs)
As to B2, the IC50 in test [2] came out at 2.27 nM.

B3: GLP-1 derivative of Example 30 (Chem. 49), N^eps26,N^eps37-diacylated [Imp^7,Aib^8,Arg^34,Lys^37]-GLP-1-(7-37)-peptide (peptide)
peptide: XXEGTFTSDVSSYLEGQAAKEFIAWLVRGRK
modifications: Imp (imidazopropionyl, des-amino histidine) at 7; Aib at 8; eps-amino of Lys26 and Lys37 each acylated with 12-(4-carboxyphenoxy)dodecanoyl-gGlu-Ser-Gly-Ser-eps-Lys
On to B3, for which, in test [3], the “In vitro potency (CRE-luciferase) low albumin EC50” value is 0.0094 nM. In addition, the 50% inhibitory concentration (IC50) in test [2] was found to be 0.18 nM.

B4: Comparative compound of Example 2a: Compound of Example 17, Chem. 36, in WO 2011/080103 (peptide)
peptide: HXEGTFTSDVSSYLEGQAAKEFIAHLVQGRK
modifications: Aib at 8; eps-amino of Lys26 and Lys37 each acylated with 10-(4-carboxyphenoxy)decanoyl via the gGlu-2xOEG linker (as Example 2, only the linker differs)
Turning to B4, the “In vitro potency (CRE-luciferase) low albumin EC50” value in test [3] was 0.132 nM. In addition, the “In vitro potency (AlphaScreen cAMP; membranes) EC50” value in test [1] turned out to be 0.582 nM. The molecule further returned an IC50 in test [2] of 44.5 nM.

B5: GLP-1 derivative of Example 25 (Chem. 44), N^eps26,N^eps37-diacylated [Aib^8,Arg^34,Lys^37]-GLP-1-(7-37)-peptide (peptide)
peptide: HXEGTFTSDVSSYLEGQAAKEFIAWLVRGRK
modifications: Aib at 8; eps-amino of Lys26 and Lys37 each acylated with 12-(4-carboxyphenoxy)dodecanoyl-gGlu-Ser-Ser-Gly-Ser-Ser-Gly-eps-Lys
On to B5, for which the “In vitro potency (AlphaScreen cAMP; membranes) EC50” value in test [1] amounted to 0.252 nM. In test [2], this molecule yielded an IC50 of 0.27 nM.

In the case of H[Aib]EGTFTSDVSK([Gly-Ser-Ser-Gly-Ser-Ser-γGlu-Undecanoyl(11-OPh(4-COOH))])YLEGQAAK([Gly-Ser-Ser-Gly-Ser-Ser-γGlu-Undecanoyl(11-OPh(4-COOH))])EFIAWLVQGRG, the “In vitro potency (CRE-luciferase) low albumin EC50” value in test [3] came to 0.0056 nM. Also, the IC50 in test [2] worked out at 0.37 nM.

For HAEGTFTSDVSK([AEEA-AEEA-γGlu-Decanoyl(10-(4-HOOC-PhO))])YLEEQAAK([AEEA-AEEA-γGlu-Decanoyl(10-(4-HOOC-PhO))])EFIAWLVQGRG [Comparative compound of Example 5a: Compound of Example 38, Chem. 57, in WO 2012/062803], the “In vitro potency (CRE-luciferase) low albumin EC50” value in test [3] came out at 0.025 nM. Moreover, the “In vitro potency (AlphaScreen cAMP; membranes) EC50” value in test [1] worked out at 0.224 nM. The molecule also displayed an IC50 in test [2] of 5.8 nM.

As for H[Aib]EGTFTSDVSK([εLys-Gly-Ser-Ser-Gly-Ser-Ser-Gly-Ser-Ser-Gly-Ser-Ser-γGlu-Undecanoyl(11-OPh(4-COOH))])YLEGQAAK([εLys-Gly-Ser-Ser-Gly-Ser-Ser-Gly-Ser-Ser-Gly-Ser-Ser-γGlu-Undecanoyl(11-OPh(4-COOH))])EFIAWLVQGRG, the “In vitro potency (AlphaScreen cAMP; membranes) EC50” value in test [1] was determined as 0.35 nM. Besides, the IC50 in test [2] is 2.27 nM.
